Experimental data published in US20170224620A1 (Pfizer, published 2017).
Bridges are numbered along the chain shown (N, C = ends). Where no end group is shown, it is not given here. [ ]: non-standard residue; d: D form. Phe(F5) = N[C@@H](Cc1c(F)c(F)c(F)c(F)c1F)C(=O)O; Dip = N[C@H](C(=O)O)C(c1ccccc1)c1ccccc1; Phe(4-NH2) = Nc1ccc(C[C@H](N)C(=O)O)cc1; Bta = N[C@@H](Cc1csc2ccccc12)C(=O)O; hPhe = N[C@@H](CCc1ccccc1)C(=O)O; 3Pal = N[C@@H](Cc1cccnc1)C(=O)O; 2Thi = N[C@@H](Cc1cccs1)C(=O)O; hCys = N[C@@H](CCS)C(=O)O; Orn = NCCC[C@H](N)C(=O)O; Pra = C#CC[C@H](N)C(=O)O; Dap = NC[C@H](N)C(=O)O

B1: P2-8 (peptide)
peptide: DPCTWEVAGRECLQ
modifications: disulfide 3-12; not fully specified (N-terminus, C-terminus); also: C-terminal propargylglycine moiety
notes: also called P2 Ala scan, AA position 8
B2: P2-27 (peptide)
peptide: H-DPC[Pra]WEVWGRECLQ-NH2
modifications: disulfide 3-12
SMILES: C#CC[C@@H]1NC(=O)[C@@H](NC(=O)[C@@H]2CCCN2C(=O)[C@@H](N)CC(=O)O)CSSC[C@@H](C(=O)N[C@@H](CC(C)C)C(=O)N[C@@H](CCC(N)=O)C(N)=O)NC(=O)[C@H](CCC(=O)O)NC(=O)[C@H](CCCNC(=N)N)NC(=O)CNC(=O)[C@H](Cc2c[nH]c3ccccc23)NC(=O)[C@H](C(C)C)NC(=O)[C@H](CCC(=O)O)NC(=O)[C@H](Cc2c[nH]c3ccccc23)NC1=O
B3: P2-31 (peptide)
peptide: H-DPCTW[Pra]VWGRECLQ-NH2
modifications: disulfide 3-12
SMILES: C#CC[C@@H]1NC(=O)[C@H](Cc2c[nH]c3ccccc23)NC(=O)[C@H]([C@@H](C)O)NC(=O)[C@@H](NC(=O)[C@@H]2CCCN2C(=O)[C@@H](N)CC(=O)O)CSSC[C@@H](C(=O)N[C@@H](CC(C)C)C(=O)N[C@@H](CCC(N)=O)C(N)=O)NC(=O)[C@H](CCC(=O)O)NC(=O)[C@H](CCCNC(=N)N)NC(=O)CNC(=O)[C@H](Cc2c[nH]c3ccccc23)NC(=O)[C@H](C(C)C)NC1=O
B4: P2-35 (peptide)
peptide: H-DPCTWE[Pra]WGRECLQ-NH2
modifications: disulfide 3-12
SMILES: C#CC[C@@H]1NC(=O)[C@H](CCC(=O)O)NC(=O)[C@H](Cc2c[nH]c3ccccc23)NC(=O)[C@H]([C@@H](C)O)NC(=O)[C@@H](NC(=O)[C@@H]2CCCN2C(=O)[C@@H](N)CC(=O)O)CSSC[C@@H](C(=O)N[C@@H](CC(C)C)C(=O)N[C@@H](CCC(N)=O)C(N)=O)NC(=O)[C@H](CCC(=O)O)NC(=O)[C@H](CCCNC(=N)N)NC(=O)CNC(=O)[C@H](Cc2c[nH]c3ccccc23)NC1=O
B5: P2-70 (peptide)
peptide: DPCTFEVWGRECLQ
modifications: disulfide 3-12; not fully specified (N-terminus, C-terminus)
notes: P2 backbone; also called P2 with Phenylalanine at W5
B6: P2-51 (peptide)
peptide: H-DP[hCys]TWEVWGRECLQGG[Pra]G-NH2
modifications: disulfide 3-12
SMILES: C#CC[C@H](NC(=O)CNC(=O)CNC(=O)[C@H](CCC(N)=O)NC(=O)[C@H](CC(C)C)NC(=O)[C@@H]1CSSCC[C@H](NC(=O)[C@@H]2CCCN2C(=O)[C@@H](N)CC(=O)O)C(=O)N[C@@H]([C@@H](C)O)C(=O)N[C@@H](Cc2c[nH]c3ccccc23)C(=O)N[C@@H](CCC(=O)O)C(=O)N[C@@H](C(C)C)C(=O)N[C@@H](Cc2c[nH]c3ccccc23)C(=O)NCC(=O)N[C@@H](CCCNC(=N)N)C(=O)N[C@@H](CCC(=O)O)C(=O)N1)C(=O)NCC(N)=O
B7: P2-52 (peptide)
peptide: H-DP[hCys]TWEVWGRE[hCys]LQGG[Pra]G-NH2
modifications: disulfide 3-12
SMILES: C#CC[C@H](NC(=O)CNC(=O)CNC(=O)[C@H](CCC(N)=O)NC(=O)[C@H](CC(C)C)NC(=O)[C@@H]1CCSSCC[C@H](NC(=O)[C@@H]2CCCN2C(=O)[C@@H](N)CC(=O)O)C(=O)N[C@@H]([C@@H](C)O)C(=O)N[C@@H](Cc2c[nH]c3ccccc23)C(=O)N[C@@H](CCC(=O)O)C(=O)N[C@@H](C(C)C)C(=O)N[C@@H](Cc2c[nH]c3ccccc23)C(=O)NCC(=O)N[C@@H](CCCNC(=N)N)C(=O)N[C@@H](CCC(=O)O)C(=O)N1)C(=O)NCC(N)=O
B8: P2-53 (peptide)
peptide: DPCTWEVWGREXLQGGGG
modifications: free N-terminus; penicillamine (Pen) at 12, disulfide with Cys3; Par at 17; C-terminal amide
B9: P2-74 (peptide)
peptide: DPCT[3Pal]EVWGRECLQ
modifications: disulfide 3-12; not fully specified (N-terminus)
notes: P2 backbone; also called P2 with 3-Pyridyl Alanine at W5
B10: P2-86 (peptide)
peptide: DPCT[Phe(4-NH2)]EVWGRECLQ
modifications: disulfide 3-12; not fully specified (N-terminus)
notes: P2 backbone; also called P2 with 4-Amino Phenylalanine at W5
B11: P2-88 (peptide)
peptide: DPCT[Phe(F5)]EVWGRECLQ
modifications: disulfide 3-12; not fully specified (N-terminus)
notes: P2 backbone; also called P2 with Pentafluoro Phenylalanine at W5
B12: P2-90 (peptide)
peptide: DPCTXEVWGRECLQ
modifications: not fully specified; 3-Benzothienyl Alanine at 5; Cys3-Cys12 disulfide
notes: P2 backbone; also called P2 with 3-Benzothienyl Alanine at W5
B13: P2-91 (peptide)
peptide: DPCTWEV[Bta]GRECLQ
modifications: disulfide 3-12; not fully specified (N-terminus)
notes: P2 backbone; also called P2 with 3-Benzothienyl Alanine at W8
B14: P2-92 (peptide)
peptide: DPCT[2Thi]EVWGRECLQ
modifications: disulfide 3-12; not fully specified (N-terminus)
notes: P2 backbone; also called P2 with 2-Thienyl Alanine at W5
B15: P2-94 (peptide)
peptide: DPCT[hPhe]EVWGRECLQ
modifications: disulfide 3-12; not fully specified (N-terminus)
notes: P2 backbone; also called P2 with Homophenylalanine at W5
B16: P2-96 (peptide)
peptide: DPCT[Dip]EVWGRECLQ
modifications: disulfide 3-12; not fully specified (N-terminus)
notes: P2 backbone; also called P2 with Diphenylalanine at W5
B17: P2-101 (peptide)
peptide: DPCTWEVXGRECLQ
modifications: not fully specified; 5-Methoxy Tryptophan at 8; Cys3-Cys12 disulfide
notes: P2 backbone; also called P2 with 5-Methoxy Tryptophan at W8
B18: P2-58 (peptide)
peptide: H-GDP[Orn]TWEVWGREDLQGG[Pra]G-NH2
modifications: lactam 4-13
SMILES: C#CC[C@H](NC(=O)CNC(=O)CNC(=O)[C@H](CCC(N)=O)NC(=O)[C@H](CC(C)C)NC(=O)[C@@H]1CC(=O)NCCC[C@H](NC(=O)[C@@H]2CCCN2C(=O)[C@H](CC(=O)O)NC(=O)CN)C(=O)N[C@@H]([C@@H](C)O)C(=O)N[C@@H](Cc2c[nH]c3ccccc23)C(=O)N[C@@H](CCC(=O)O)C(=O)N[C@@H](C(C)C)C(=O)N[C@@H](Cc2c[nH]c3ccccc23)C(=O)NCC(=O)N[C@@H](CCCNC(=N)N)C(=O)N[C@@H](CCC(=O)O)C(=O)N1)C(=O)NCC(N)=O
B19: P2-65 (peptide)
peptide: H-GDPDTWEVWGRE[Orn]LQGG[Pra]G-NH2
modifications: lactam 4-13
SMILES: C#CC[C@H](NC(=O)CNC(=O)CNC(=O)[C@H](CCC(N)=O)NC(=O)[C@H](CC(C)C)NC(=O)[C@@H]1CCCNC(=O)C[C@H](NC(=O)[C@@H]2CCCN2C(=O)[C@H](CC(=O)O)NC(=O)CN)C(=O)N[C@@H]([C@@H](C)O)C(=O)N[C@@H](Cc2c[nH]c3ccccc23)C(=O)N[C@@H](CCC(=O)O)C(=O)N[C@@H](C(C)C)C(=O)N[C@@H](Cc2c[nH]c3ccccc23)C(=O)NCC(=O)N[C@@H](CCCNC(=N)N)C(=O)N[C@@H](CCC(=O)O)C(=O)N1)C(=O)NCC(N)=O
B20: P2-68 (peptide)
peptide: H-GDPETWEVWGRE[Orn]LQGG[Pra]G-NH2
modifications: lactam 4-13
SMILES: C#CC[C@H](NC(=O)CNC(=O)CNC(=O)[C@H](CCC(N)=O)NC(=O)[C@H](CC(C)C)NC(=O)[C@@H]1CCCNC(=O)CC[C@H](NC(=O)[C@@H]2CCCN2C(=O)[C@H](CC(=O)O)NC(=O)CN)C(=O)N[C@@H]([C@@H](C)O)C(=O)N[C@@H](Cc2c[nH]c3ccccc23)C(=O)N[C@@H](CCC(=O)O)C(=O)N[C@@H](C(C)C)C(=O)N[C@@H](Cc2c[nH]c3ccccc23)C(=O)NCC(=O)N[C@@H](CCCNC(=N)N)C(=O)N[C@@H](CCC(=O)O)C(=O)N1)C(=O)NCC(N)=O

Molecular target: T1, Fc tagged recombinant human EGFR (rhEGFR-Fc, R&D systems, Cat#344-ER-050) (human, UniProt P00533 25-645)
T1 construct: Bought protein; also called apo-EGFR; not shown: Fc tag
Assay: SPR
Description: Surface plasmon resonance (SPR) binding studies were carried out on a Biacore T200 instrument (GE Healthcare). […] The contact time and resulting amount of rhEGFR-Fc capture was varied based on the nature of the analyte, namely whether it was a peptide or nanoparticle.
Peptide binding assays were carried out in 10 mM PBS buffer supplemented with 0.05% surfactant P20 and 5% DMSO by volume, at 25° C. Peptides were injected over the rhEGFR-Fc surface for 60 s, followed by dissociation (buffer injection) for 60 s and regeneration with a 10 s pulse of 3M MgCl₂. A fresh rhEGFR-Fc surface was generated for each concentration of each peptide tested. Peptide binding data was analyzed by fitting to a 1:1 Langmuir kinetic model to obtain the on-rate (kₐ), off-rate (kd) and/or equilibrium binding constant (KD) of the interaction.

Row | Binder | binding result | KD Relative to P2 | also measured
1 | B1 | no binding |  | 
2 | Ac-DPCTWEVWGREALQ (also: C-terminal propargylglycine moiety, not placed, also called P2 Ala scan, AA position 12) [P2-12] | no binding |  | 
3 | B2 |  |  | KD/P2 KD: 5.4 ratio
4 | B3 |  |  | KD/P2 KD: 0.86 ratio
5 | B4 |  |  | KD/P2 KD: 5.69 ratio
6 | B5 |  | 9.24 ratio | 
7 | B6 |  |  | Result (affinity relative to KD of P2): 8.88 ratio
8 | B7 |  |  | Result (affinity relative to KD of P2): 14 ratio
9 | B8 |  |  | Result (affinity relative to KD of P2): 2.64 ratio
10 | DPXTWEVWGRECLQGGGG (free N-terminus; Pen at 3, disulfide with Cys12; Par at 17; C-terminal amide) [P2-54] |  |  | Result (affinity relative to KD of P2): 4.78 ratio
11 | DPXTWEVWGREXLQGGGG (free N-terminus; Pen at 3 and 12, disulfide; Par at 17; C-terminal amide, also called PenPen analog) [P2-55 (free-ligand series, GG-Par-G tail)] |  |  | Result (affinity relative to KD of P2): 1.18 ratio
12 | H-GGDPETWEVWGREKLQGG[Pra]G-NH2 (lactam 5-14) [P2-67] | binds |  | 
13 | B9 |  | 11.8 ratio | 
14 | B10 |  | 9 ratio | 
15 | B11 |  | 8.5 ratio | 
16 | B12 |  | 1.6 ratio | 
17 | B13 |  | 124 ratio | 
18 | B14 |  | 15.9 ratio | 
19 | B15 |  | 9.1 ratio | 
20 | B16 |  | 8.9 ratio | 
21 | B17 |  | 0.5 ratio | 
22 | DPCTWEVWXRECLQGGGG (free N-terminus; Sar at 9; Cys3-Cys12 disulfide; Par at 17; C-terminal amide) [P2-43] | no binding |  | 
23 | B18 | no binding |  | 
24 | H-GDP[Dap]TWEVWGREDLQGG[Pra]G-NH2 (lactam 4-13) [P2-59] | no binding |  | 
25 | H-GDPKTWEVWGREELQGG[Pra]G-NH2 (lactam 4-13) [P2-60] | no binding |  | 
26 | H-GDPDTWEVWGREKLQGG[Pra]G-NH2 (lactam 4-13) [P2-64] | no binding |  | 
27 | B19 | no binding |  | 
28 | B20 | no binding |  | 
29 | H-GDPETWEVWGRE[Dap]LQGG[Pra]G-NH2 (lactam 4-13) [P2-69] | no binding |  | 
